Source: paper PMC9893218

Molecular target: trastuzumab
Assay: SEC + native MS

stoichiometry N: 2
Substance: trastuzumab (antibody)
